The record followed here is patent US20150132305A1.

What is called EC50 (read off the curve) is the concentration that produces a half-maximal response. Higher therefore signals lower potency in that assay.

No end group written: not given here.

B1: Cad-11-EC1-5-Fc fusion protein (5 extracellular domains of Cad-11 fused to the human IgG2 hinge, CH2 and CH3 domains) (Fc fusion, not shown: a dimerising Fc or GST)
chain: GWVWNQFFVIEEYTGPDPVLVGRLHSDIDSGDGNIKYILSGEGAGTIFVIDDKSGNIHATKTLDREERAQYTLMAQAVDRDTNRPLEPPSEFIVKVQDINDNPPEFLHETYHANVPERSNVGTSVIQVTASDADDPTYGNSAKLVYSILEGQPYFSVEAQTGIIRTALPNMDREAKEEYHVVIQAKDMGGHMGGLSGTTKVTITLTDVNDNPPKFPQSVYQMSVSEAAVPGEEVGRVKAKDPDIGENGLVTYNIVDGDGMESFEITTDYETQEGVIKLKKPVDFETKRAYSLKVEAANVHIDPKFISNGPFKDTVTVKISVEDADEPPMFLAPSYIHEVQENAAAGTVVGRVHAKDPDAANSPIRYSIDRHTDLDRFFTINPEDGFIKTTKPLDREETAWLNITVFAAEIHNRHQEAKVPVAIRVLDVNDNAPKFAAPYEGFICESDQTKPLSNQPIVTISADDKDDTANGPRFIFSLPPEIIHNPNFTVRDNRDNTAGVYARRGGFSRQKQDLYLLPIVISDGGIPPMSSTNTLTIKVCGCDVNGALLSCNAEAYILNAGLST
B2: human Cad-11-EC1-hIgG2-Fc1 fusion protein (Fc fusion)
chain: FAPERRGHLRPSFHGHHEKGKEGQVLQRSKRGWVWNQFFVIEEYTGPDPVLVGRLHSDIDSGDGNIKYILSGEGAGTIFVIDDKSGNIHATKTLDREERAQYTLMAQAVDRDTNRPLEPPSEFIVKVQRSVECPPCPAPPVAGPSVFLFPPKPKDTLMISRTPEVTCVVVDVSHEDPEVQFNWYVDGMEVHNAKTKPREEQFNSTFRVVSVLTVVHQDWLNGKEYKCKVSNKGLPAPIEKTISKTKGQPREPQVYTLPPSREEMTKNQVSLTCLVKGFYPSDIAVEWESNGQPENNYKTTPPMLDSDGSFFLYSKLTVDKSRWQQGNVFSCSVMHEALHNHYTQKSLSLSPGKVPRLA
B3: SDP081 humanized anti-Cad-11 EC1 antibody (Vκ2/VH3) (antibody, IgG4, V domains shown)
VH: EVQLVQSGAEVKKPGASVKISCKASGYSFTGYFMNWVRQAPGQGLEWIGRINPYTGDTFYNQKFKGRATLTVDKSTSTAYMELSSLRSEDTAVYYCGRLGSRYWYFDVWGQGTTVTVSS
VL: DVLMTQTPLSSPVTLGQPASISCRSSQSIIHSNGNTYLEWYLQKPGQSPQLLIYKVSNRFSGVPDRFSGSGSGTDFTLKISRVEAEDVGVYYCFQGSHVPWTFGQGTKLEIK
B4: SDP121 humanized anti-Cad-11 EC1 antibody (Vκ3/VH2) (antibody, IgG4, V domains shown)
VH: EVQLVQSGAEVKKPGASVKISCKASGYSFTGYFMNWVKQAPGQGLEWIGRINPYTGDTFYNQKFKGRATLTVDKSTSTAYMELSSLRSEDTAVYYCGRLGSRYWYFDVWGQGTTVTVSS
VL: DVVMTQTPLSSPVTLGQPASISCRSSQSIIHSNGNTYLEWYLQKPGQSPQLLIYKVSNRFSGVPDRFSGSGSGTDFTLKISRVEAEDVGVYYCFQGSHVPWTFGQGTKLEIK
B5: SDP031 humanized anti-Cad-11 EC1 antibody (Vκ1/VH3) (antibody, IgG4, V domains shown)
VH: EVQLVQSGAEVKKPGASVKISCKASGYSFTGYFMNWVRQAPGQGLEWIGRINPYTGDTFYNQKFKGRATLTVDKSTSTAYMELSSLRSEDTAVYYCGRLGSRYWYFDVWGQGTTVTVSS
VL: DVLMTQTPLSSPVTLGQPASISCRSSQSIIHSNGNTYLEWYLQKPGQSPQLLIYKVSNRFSGVPDRFTGSGSGTDFTLKISRVEAEDVGVYYCFQGSHVPWTFGQGTKLEIK
B6: SDP021 humanized anti-Cad-11 EC1 antibody (Vκ1/VH2) (antibody, IgG4, V domains shown)
VH: EVQLVQSGAEVKKPGASVKISCKASGYSFTGYFMNWVKQAPGQGLEWIGRINPYTGDTFYNQKFKGRATLTVDKSTSTAYMELSSLRSEDTAVYYCGRLGSRYWYFDVWGQGTTVTVSS
VL: DVLMTQTPLSSPVTLGQPASISCRSSQSIIHSNGNTYLEWYLQKPGQSPQLLIYKVSNRFSGVPDRFTGSGSGTDFTLKISRVEAEDVGVYYCFQGSHVPWTFGQGTKLEIK
B7: SDP151 humanized anti-Cad-11 EC1 antibody (Vκ3/VH5) (antibody, IgG4, V domains shown)
VH: EVQLVQSGAEVKKPGASVKVSCKASGYSFTGYFMNWVRQAPGQGLEWIGRINPYTGDTFYNQKFKGRVTITVDKSTSTAYMELSSLRSEDTAVYYCGRLGSRYWYFDVWGQGTTVTVSS
VL: DVVMTQTPLSSPVTLGQPASISCRSSQSIIHSNGNTYLEWYLQKPGQSPQLLIYKVSNRFSGVPDRFSGSGSGTDFTLKISRVEAEDVGVYYCFQGSHVPWTFGQGTKLEIK
B8: SDP091 humanized anti-Cad-11 EC1 antibody (Vκ2/VH4) (antibody, IgG4, V domains shown)
VH: EVQLVQSGAEVKKPGASVKVSCKASGYSFTGYFMNWVRQAPGQGLEWIGRINPYTGDTFYNQKFKGRATITVDKSTSTAYMELSSLRSEDTAVYYCGRLGSRYWYFDVWGQGTTVTVSS
VL: DVLMTQTPLSSPVTLGQPASISCRSSQSIIHSNGNTYLEWYLQKPGQSPQLLIYKVSNRFSGVPDRFSGSGSGTDFTLKISRVEAEDVGVYYCFQGSHVPWTFGQGTKLEIK
B9: SDP111 humanized anti-Cad-11 EC1 antibody (Vκ3/VH1) (antibody, IgG4, V domains shown)
VH: EVQLVQSGPELKKPGASVKISCKASGYSFTGYFMNWVKQAHGQGLEWIGRINPYTGDTFYNQKFKGRATLTVDKSSSTAYMELVSLSSEDSAVYYCGRLGSRYWYFDVWGQGTTVTVSS
VL: DVVMTQTPLSSPVTLGQPASISCRSSQSIIHSNGNTYLEWYLQKPGQSPQLLIYKVSNRFSGVPDRFSGSGSGTDFTLKISRVEAEDVGVYYCFQGSHVPWTFGQGTKLEIK
B10: SDP061 humanized anti-Cad-11 EC1 antibody (Vκ2/VH1) (antibody, IgG4, V domains shown)
VH: EVQLVQSGPELKKPGASVKISCKASGYSFTGYFMNWVKQAHGQGLEWIGRINPYTGDTFYNQKFKGRATLTVDKSSSTAYMELVSLSSEDSAVYYCGRLGSRYWYFDVWGQGTTVTVSS
VL: DVLMTQTPLSSPVTLGQPASISCRSSQSIIHSNGNTYLEWYLQKPGQSPQLLIYKVSNRFSGVPDRFSGSGSGTDFTLKISRVEAEDVGVYYCFQGSHVPWTFGQGTKLEIK
B11: SDP011 humanized anti-Cad-11 EC1 antibody (Vκ1/VH1) (antibody, IgG4, V domains shown)
VH: EVQLVQSGPELKKPGASVKISCKASGYSFTGYFMNWVKQAHGQGLEWIGRINPYTGDTFYNQKFKGRATLTVDKSSSTAYMELVSLSSEDSAVYYCGRLGSRYWYFDVWGQGTTVTVSS
VL: DVLMTQTPLSSPVTLGQPASISCRSSQSIIHSNGNTYLEWYLQKPGQSPQLLIYKVSNRFSGVPDRFTGSGSGTDFTLKISRVEAEDVGVYYCFQGSHVPWTFGQGTKLEIK
B12: SDP041 humanized anti-Cad-11 EC1 antibody (Vκ1/VH4) (antibody, IgG4, V domains shown)
VH: EVQLVQSGAEVKKPGASVKVSCKASGYSFTGYFMNWVRQAPGQGLEWIGRINPYTGDTFYNQKFKGRATITVDKSTSTAYMELSSLRSEDTAVYYCGRLGSRYWYFDVWGQGTTVTVSS
VL: DVLMTQTPLSSPVTLGQPASISCRSSQSIIHSNGNTYLEWYLQKPGQSPQLLIYKVSNRFSGVPDRFTGSGSGTDFTLKISRVEAEDVGVYYCFQGSHVPWTFGQGTKLEIK
B13: SDP131 humanized anti-Cad-11 EC1 antibody (Vκ3/VH3) (antibody, IgG4, V domains shown)
VH: EVQLVQSGAEVKKPGASVKISCKASGYSFTGYFMNWVRQAPGQGLEWIGRINPYTGDTFYNQKFKGRATLTVDKSTSTAYMELSSLRSEDTAVYYCGRLGSRYWYFDVWGQGTTVTVSS
VL: DVVMTQTPLSSPVTLGQPASISCRSSQSIIHSNGNTYLEWYLQKPGQSPQLLIYKVSNRFSGVPDRFSGSGSGTDFTLKISRVEAEDVGVYYCFQGSHVPWTFGQGTKLEIK
B14: SDP141 humanized anti-Cad-11 EC1 antibody (Vκ3/VH4) (antibody, IgG4, V domains shown)
VH: EVQLVQSGAEVKKPGASVKVSCKASGYSFTGYFMNWVRQAPGQGLEWIGRINPYTGDTFYNQKFKGRATITVDKSTSTAYMELSSLRSEDTAVYYCGRLGSRYWYFDVWGQGTTVTVSS
VL: DVVMTQTPLSSPVTLGQPASISCRSSQSIIHSNGNTYLEWYLQKPGQSPQLLIYKVSNRFSGVPDRFSGSGSGTDFTLKISRVEAEDVGVYYCFQGSHVPWTFGQGTKLEIK
B15: SDP071 humanized anti-Cad-11 EC1 antibody (Vκ2/VH2) (antibody, IgG4, V domains shown)
VH: EVQLVQSGAEVKKPGASVKISCKASGYSFTGYFMNWVKQAPGQGLEWIGRINPYTGDTFYNQKFKGRATLTVDKSTSTAYMELSSLRSEDTAVYYCGRLGSRYWYFDVWGQGTTVTVSS
VL: DVLMTQTPLSSPVTLGQPASISCRSSQSIIHSNGNTYLEWYLQKPGQSPQLLIYKVSNRFSGVPDRFSGSGSGTDFTLKISRVEAEDVGVYYCFQGSHVPWTFGQGTKLEIK

For one experiment, the target named is T1, human Cadherin-11 on cells (Cad-11-expressing 431-D-11 cells; human fibroblast-like synoviocytes) (human) (UniProt P55287).
T1 sequence: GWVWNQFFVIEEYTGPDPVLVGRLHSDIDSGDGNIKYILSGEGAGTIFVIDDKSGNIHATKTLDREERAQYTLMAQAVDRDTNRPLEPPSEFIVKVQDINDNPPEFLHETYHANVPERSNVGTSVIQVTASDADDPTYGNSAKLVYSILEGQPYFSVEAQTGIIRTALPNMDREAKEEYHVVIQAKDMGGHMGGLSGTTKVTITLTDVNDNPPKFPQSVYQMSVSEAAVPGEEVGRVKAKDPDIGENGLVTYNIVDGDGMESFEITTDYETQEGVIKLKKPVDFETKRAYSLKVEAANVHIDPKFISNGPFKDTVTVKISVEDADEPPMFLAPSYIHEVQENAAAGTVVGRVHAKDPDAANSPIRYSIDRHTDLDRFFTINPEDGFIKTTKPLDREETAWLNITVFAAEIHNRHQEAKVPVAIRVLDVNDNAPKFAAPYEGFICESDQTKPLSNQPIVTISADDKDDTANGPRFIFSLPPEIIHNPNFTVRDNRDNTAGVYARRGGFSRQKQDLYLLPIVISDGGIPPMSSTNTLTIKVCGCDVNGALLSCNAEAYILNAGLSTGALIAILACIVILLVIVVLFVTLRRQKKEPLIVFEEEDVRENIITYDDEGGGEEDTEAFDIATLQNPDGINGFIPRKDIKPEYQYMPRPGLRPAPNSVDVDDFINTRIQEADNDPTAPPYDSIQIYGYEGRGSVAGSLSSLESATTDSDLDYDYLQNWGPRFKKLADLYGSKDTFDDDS
Kind of experiment: cell-based or functional assay.
In turn, B1 had a Cad-11 mediated cell aggregation of 100 µg/mL.
Turning to B2, the Cad-11 mediated cell aggregation came out at 3 µg/mL.

A further experiment addresses SDP051 humanized anti-Cad-11 EC1 antibody (Vκ1/VH5). In words: flow cytometry blocking assay: peptide titrated with SDP 051 at 0.5 ug/ml on Cad-11 expressing 431D cells; blocked: binding of SDP051 to cell-surface Cad-11; MFI. On the technique in general: In flow cytometry, cells or beads pass a laser one at a time.
GWVWNQFFVIEEYTGPDPVLVGRLHSDIDSGDGNIKY (also: linked to BSA) [Cad-11 37-mer peptide linked to BSA (encompasses the Cad-11 immunogen)]: the IC50 (read off the curve) was 0.2 µg/mL.

In the next experiment the target is T2, Cad-11 37-mer peptide linked to BSA (encompasses the Cad-11 immunogen) (human).
T2 sequence (peptide, linked to BSA): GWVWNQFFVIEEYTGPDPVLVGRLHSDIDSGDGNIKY
In words: ELISA, BSA-coupled 37-mer cadherin peptide coated at 500 ng/ml, A450. For orientation: An ELISA detects its analyte on a solid surface through an enzyme-linked reagent.
B3 had an EC50 (read off the curve) of 0.07 µg/mL.
On the same count and under the same terms, the result for B4 reads 0.05 µg/mL; that for B5, 0.06 µg/mL.
The same measure, in the same setting: with B6 the figure was 0.06 µg/mL.
The same measure, in the same setting: with B7 the figure was 0.06 µg/mL; with B8, 0.07 µg/mL; with B9, 0.07 µg/mL.
For B10, the EC50 (read off the curve) was 0.05 µg/mL.
Turning to B11, the EC50 (read off the curve) is 0.07 µg/mL.
Still for that read-out and setting: the result for B12 reads 0.06 µg/mL; that for B13, 0.07 µg/mL; that for B14, 0.06 µg/mL.

The target is the same in another experiment. Kind of experiment: ELISA on BSA-coupled 37-mer peptides, 500 ng/ml coat.
In turn, B5 displayed a fold greater binding to the Cad-11 antigen than to the related antigens from the other cadherins greater than 20 fold.
Molecule B15 had a fold greater binding to the Cad-11 antigen than to the related antigens from the other cadherins greater than 20 fold.
Take B10: the fold greater binding to the Cad-11 antigen than to the related antigens from the other cadherins was greater than 20 fold.
